Measured values from the supplement of paper PMC10567573.

B1: KCNAB2 (parent)
chain: SSIIHEIDSILGNKPYSKKDYRS

Variants of: B1
Experiment: protein stability index of a GFP-peptide fusion (GPS, HEK-293T) (PSI 1-6); higher = more stable
Conditions: c terminus: native
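Further: lentivirally expressed fusions sorted by FACS into six bins by GFP to DsRed ratio, PSI derived from sequencing read proportions per bin multiplied by bin number.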

Protein stability index of substitutions, site by site:
R22: L 4.01, C 3.26, W 2.57, H 4.39, V 3.12, S 4.01, D 4.42, Q 4.29, N 4.55, G 3.98, M 3.29, F 3.18, A 4.01, K 4.37, P 4.29, Y 3.24, T 4.28, I 3.67
Y21: W 3.28, G 3.37, T 2.35, K 3.66, S 1.08, E 3.37, N 3.64, M 2.17, Q 2.2, L 2.37, V 3.27, H 3.15, F 2.52, I 2.47, P 5.12, R 1.77, D 4.07
S23: V 3.68, E 4.19, W 2.72, M 3.96, R 2.18, C 3.67, N 4.49, H 4.09, K 4.33, L 3.9, G 2.56, A 3.37, Y 3.02, F 4.46, P 3.8, I 3.74, T 4.17, D 4.12, Q 3.6
